Experimental data published in patent US20120114667A1 (AstraZeneca / MedImmune, published 2012).

B1: 5B11 (antibody, IgG2, V domains shown)
VH: QVQLVESGGGVVQPGRSVRLSCAASGFTFSSYGMHWVRQTPGKGLEWVAIIWYDGGIEYYADSVKGRFTISRDNSKNTLYLQMNSLRAEDTAVYYCARDHRYGSSWFDYWGQGTLVTVSS
VL: DIQMTQSPSSLSASVGDRVTITCRASQGINNYLAWFQQKPGKAPKSLIYAASSLQSGVPSNFSGSGSGTDFTLSISSLQPEDFATYYCQQYKSYPLTFGGGTKVEIR
notes: also called MAb 5B11; mAb 5B11
B2: 3C5 (antibody, IgG2, V domains shown)
VH: RVQLQESGPGLVKPSQTLSLTCTVSGGSIISGGYFWTWIRQHPGKGLEWIGYIYYSGSTYYSPSLKSRVTISVDTSKNQFSLKLSSVTAADTAVYYCTRAVPAAKGYYSYYGMDVWGQGTTVTVSS
VL: DIVMTQSPLSLPVTPGEPASISCRSSQSLLHSSGYNYLDWFLQKPGQSPQLLIYLSSNRASGVPDRFSGSGSGTDFTLKISRVEAEDVGVYYCMQALQTPFTFGPGTKVDIK
notes: also called MAb 3C5; mAb 3C5
B3: 2F5.1A4 (antibody, IgG2, V domains shown)
VH: QMQLVQSGAEVKKPGASVKVSCKASGYTFTGYYMHWVRQAPGQGLEWMGWINTNSGGTNCAQKFQVRVTMTRDTSISTAYMELSRLRSDDTAVYYCARGRGYSSGWYDYWGQGTLVTVSS
VL: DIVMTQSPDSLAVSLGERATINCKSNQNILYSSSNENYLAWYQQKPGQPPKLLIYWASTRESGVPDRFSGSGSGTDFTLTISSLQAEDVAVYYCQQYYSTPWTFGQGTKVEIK

Key:
human α5β1 integrin [1] = target: T1, human α5β1 integrin (human, UniProt P08648 42-1049; P05556 21-798); test: cell-based or functional assay
T1 sequence (P08648 42-1049, chain 1 of 2): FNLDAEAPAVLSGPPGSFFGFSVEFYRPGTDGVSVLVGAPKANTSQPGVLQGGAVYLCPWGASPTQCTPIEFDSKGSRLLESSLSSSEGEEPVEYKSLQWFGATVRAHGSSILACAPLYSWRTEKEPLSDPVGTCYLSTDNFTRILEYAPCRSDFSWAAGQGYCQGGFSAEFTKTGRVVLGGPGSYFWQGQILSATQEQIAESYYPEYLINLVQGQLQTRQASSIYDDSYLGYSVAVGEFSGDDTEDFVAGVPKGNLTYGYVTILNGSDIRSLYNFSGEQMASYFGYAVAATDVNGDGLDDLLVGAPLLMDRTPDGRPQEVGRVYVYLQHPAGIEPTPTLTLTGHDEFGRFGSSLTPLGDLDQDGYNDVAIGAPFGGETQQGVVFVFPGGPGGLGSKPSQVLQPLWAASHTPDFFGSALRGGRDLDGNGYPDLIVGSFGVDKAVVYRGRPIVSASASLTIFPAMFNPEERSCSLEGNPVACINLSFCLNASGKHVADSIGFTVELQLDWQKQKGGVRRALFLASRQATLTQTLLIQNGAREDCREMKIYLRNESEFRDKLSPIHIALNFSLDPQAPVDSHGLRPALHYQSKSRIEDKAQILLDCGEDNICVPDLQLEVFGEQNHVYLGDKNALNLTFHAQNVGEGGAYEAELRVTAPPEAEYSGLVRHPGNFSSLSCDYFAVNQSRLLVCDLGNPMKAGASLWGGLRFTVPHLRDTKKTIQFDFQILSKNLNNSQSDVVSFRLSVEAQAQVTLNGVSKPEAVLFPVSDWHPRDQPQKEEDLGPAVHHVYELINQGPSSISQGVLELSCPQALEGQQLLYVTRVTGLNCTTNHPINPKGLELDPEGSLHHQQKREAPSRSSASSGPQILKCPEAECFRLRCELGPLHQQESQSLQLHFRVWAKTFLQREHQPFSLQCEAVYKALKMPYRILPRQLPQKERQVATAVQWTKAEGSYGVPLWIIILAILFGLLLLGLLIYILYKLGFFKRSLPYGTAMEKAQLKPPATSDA
T1 sequence (P05556 21-798, chain 2 of 2): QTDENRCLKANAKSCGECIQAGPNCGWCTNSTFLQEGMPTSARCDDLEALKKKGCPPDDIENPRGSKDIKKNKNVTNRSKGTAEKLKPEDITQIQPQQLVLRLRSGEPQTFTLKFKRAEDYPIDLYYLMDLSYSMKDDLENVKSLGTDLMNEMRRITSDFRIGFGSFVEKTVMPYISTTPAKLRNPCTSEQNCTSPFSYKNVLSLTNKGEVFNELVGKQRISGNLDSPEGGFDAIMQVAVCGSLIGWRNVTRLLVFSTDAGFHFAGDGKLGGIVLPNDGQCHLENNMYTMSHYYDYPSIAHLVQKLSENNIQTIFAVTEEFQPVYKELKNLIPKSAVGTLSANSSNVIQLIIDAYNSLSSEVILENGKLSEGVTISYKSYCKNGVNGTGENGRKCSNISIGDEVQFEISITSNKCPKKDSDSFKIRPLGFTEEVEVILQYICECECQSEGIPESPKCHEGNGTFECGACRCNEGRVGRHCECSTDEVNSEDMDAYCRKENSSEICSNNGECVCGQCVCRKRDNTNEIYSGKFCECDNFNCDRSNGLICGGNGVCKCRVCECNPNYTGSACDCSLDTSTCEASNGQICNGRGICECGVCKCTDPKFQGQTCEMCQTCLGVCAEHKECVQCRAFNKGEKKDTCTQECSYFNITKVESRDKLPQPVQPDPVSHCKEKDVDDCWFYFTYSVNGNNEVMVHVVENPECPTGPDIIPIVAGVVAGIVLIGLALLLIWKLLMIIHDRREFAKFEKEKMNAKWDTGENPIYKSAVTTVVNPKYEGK

[2] = target: T2, α4β1 integrin on J6.77 Jurkat cells (UniProt P13612 34-1032; P05556 21-798); test: cell-based or functional assay
T2 sequence (P13612 34-1032, chain 1 of 2): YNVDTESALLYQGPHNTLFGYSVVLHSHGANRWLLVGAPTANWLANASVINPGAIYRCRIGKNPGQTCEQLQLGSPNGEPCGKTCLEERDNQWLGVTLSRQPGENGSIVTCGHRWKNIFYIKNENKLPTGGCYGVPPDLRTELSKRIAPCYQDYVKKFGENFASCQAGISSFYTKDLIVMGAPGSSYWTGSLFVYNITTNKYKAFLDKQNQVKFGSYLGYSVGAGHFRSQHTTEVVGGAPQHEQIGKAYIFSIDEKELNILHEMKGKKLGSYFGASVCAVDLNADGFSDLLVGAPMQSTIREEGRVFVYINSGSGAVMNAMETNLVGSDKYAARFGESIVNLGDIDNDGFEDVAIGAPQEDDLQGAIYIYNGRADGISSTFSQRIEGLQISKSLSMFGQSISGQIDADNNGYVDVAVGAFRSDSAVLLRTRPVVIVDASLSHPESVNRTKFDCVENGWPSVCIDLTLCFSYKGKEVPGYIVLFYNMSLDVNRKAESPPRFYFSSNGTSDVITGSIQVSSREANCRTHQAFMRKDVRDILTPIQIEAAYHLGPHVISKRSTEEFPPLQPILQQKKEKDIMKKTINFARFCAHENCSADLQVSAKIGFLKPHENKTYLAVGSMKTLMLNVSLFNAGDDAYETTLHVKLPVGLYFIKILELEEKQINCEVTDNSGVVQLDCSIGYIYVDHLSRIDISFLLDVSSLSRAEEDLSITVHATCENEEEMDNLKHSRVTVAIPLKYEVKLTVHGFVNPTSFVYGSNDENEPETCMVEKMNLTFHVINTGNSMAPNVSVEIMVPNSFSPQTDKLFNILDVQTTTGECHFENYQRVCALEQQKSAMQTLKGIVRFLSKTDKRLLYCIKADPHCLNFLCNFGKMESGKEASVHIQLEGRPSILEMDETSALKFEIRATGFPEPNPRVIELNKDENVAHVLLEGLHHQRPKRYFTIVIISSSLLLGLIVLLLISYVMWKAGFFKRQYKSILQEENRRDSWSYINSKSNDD
T2 sequence (P05556 21-798, chain 2 of 2): as the sequence (P05556 21-798, chain 2 of 2) above

Macaque α5β1 = target: T3, Macaque α5β1 (Macaque); test: FACS on macaque PBMC, 1 mM Mn2+
T3 construct: whole, on cells; macaque species not specified; also called monkey α5β1; monkey integrin
Method: To determine whether the antibodies cross reacted to monkey integrin, binding to purified Macaque T-cells was assessed. Macaque PBMCs were previously purified from whole blood, and stored frozen. Macaque PBMCs were suspended in adhesion buffer with HBSS 1% BSA and 1 mM Mn2+ (“FACS buffer”), at a concentration of 4.8×10⁵ live cells per ml. 12.5 uL of the primary antibody was added to 37.5 ul of cells, and incubated at 4° C. for 1 hour. Positive and negative controls were included as indicated. 100 uL of FACs buffer is added to dilute out primary antibody, the cells washed and resuspended in the appropriate secondary at 2 ug/mL (50 uL) with 10 ug/mL 7AAD, and stained on ice for 7 minutes. 100 uL of FACs buffer was added and cells were washed twice in FACS buffer, finally the supernatant removed and the cells were resuspended in 100 uL of buffer.
Samples were read on HTS FACS machine and analyzed using Cell Quest Pro software. The data shown in Table 7 confirm that the antibodies cross react with monkey α5β1.

human α5β1 integrin [3] = target: T1, human α5β1 integrin; test: cell-based or functional assay; remark: listed apart in the source
[4] = target: T4, β1 integrin chain on HT29 cells (α5 null line) (human, UniProt P05556 21-798); test: FACS on HT29 cells (no α5, β1 present)
T4 construct: whole, on cells; β1 is paired with alpha chains other than α5 on these cells; also called β1 chain; beta1
T4 sequence (P05556 21-798): as the sequence (P05556 21-798, chain 2 of 2) above
Method: To confirm the antibodies bind to the α5 chain or to the α5β1 heterodimer, binding to Human colon adenocarcinoma grade II cells (HT29 cells) was assessed by FACS. […] HT-29 cells were suspended in HBSS with 1% BSA and 1 mM final MnCL₂ at a concentration of 6×10⁵ cells/ml.12.5 uL of the primary antibody was added to 37.5 ul of cells and the plate incubated on ice for 60 minutes. A range of negative controls were included as described previously (indicated as below). In addition as a positive control antibodies to αvβ6 (Mab2077, Chemicon), α5β1 (Mab1909, Chemicon) and av (L230, Chemicon) were included. 100 uL of HBSS buffer was added to dilute primary antibody, the cells pelleted by centrifuging at 1500 rpm for 3 minutes and resuspended in 50 ul Goat anti-human IgG Fc Cy5 or Goat anti Mouse IgG Fc Cy5 secondary at 2 ug/mL. They were then incubated on ice for a further 7 minutes, and 100 uL of HBSS buffer was added to dilute secondary antibody. Finally cells were pelleted by centrifuging at 1500 rpm for 3 minutes, HBSS Buffer/secondary supernatant removed, washed twice in 100 ul of FACS buffer was added and the cells were resuspended and then read on a FACS Calibur HTS. Samples were analyzed using Cell Quest Pro software. The data is represented in Table 6 and confirm that the antibodies are selective for α5β1.

[5] = target: T2, α4β1 integrin on J6.77 Jurkat cells; test: cell-based or functional assay; remark: listed apart in the source
human α5β1 integrin [6] = target: T1, human α5β1 integrin; test: FACS-based KD titration on K562 cells, 4 C, 5 h, 1 mM MgCl2 and 1 mM CaCl2
Method: To assess the affinity of the antibodies for α5β1, a FACS based KD analysis was employed. […] K562 cells expressing α5β1 were resuspended in filtered HBS buffer containing 1 mM MgCl₂ and 1 mM CaCl₂ at a concentration of approximately 2.5-6 million cells/mL. The cells were kept on ice. Serially diluted (2×) mAbs across 11 wells in a 96-well plate. All mAbs were diluted in HBS described above. Additional HBS and cells were added to each well so that the final volume was 300 μL/well and each well contained approximately 140,000-150,000 cells. The final molecular concentration range for each mAb was 3C5: 3.8 nM -7.5 μM; 5B11: 3.8 nM-7.3 μM. Cells were incubated on a plate shaker for 5 hours at 4° C. and then were spun/washed 3× at 4° C. with HBS. […] The Mean Fluorescence (F) of 7000 “events” was determined using FACS Canto II HTS flow cytometry instrumentation. To calculate affinity, data was fitted nonlinearly to a plot of the Mean Fluorescence as a function of molecular mAb concentration with Scientist 3.0 software using the equation:
In this equation, F=mean fluorescence, LT=total molecular mAb concentration, P′=proportionality constant that relates arbitrary fluorescence units to bound mAb, M=cellular concentration in molarity, n=number of receptors per cell, B=background signal, and KD=equilibrium dissociation constant. […]

mouse α5β1 integrin = target: T5, mouse α5β1 integrin (mouse, UniProt P11688 45-999; P09055 21-728, limits assumed); test: not described
T5 construct: printed only as mouse integrin / murine integrin; also called mouse integrin; murine integrin
T5 sequence (P11688 45-999 limits assumed, chain 1 of 2): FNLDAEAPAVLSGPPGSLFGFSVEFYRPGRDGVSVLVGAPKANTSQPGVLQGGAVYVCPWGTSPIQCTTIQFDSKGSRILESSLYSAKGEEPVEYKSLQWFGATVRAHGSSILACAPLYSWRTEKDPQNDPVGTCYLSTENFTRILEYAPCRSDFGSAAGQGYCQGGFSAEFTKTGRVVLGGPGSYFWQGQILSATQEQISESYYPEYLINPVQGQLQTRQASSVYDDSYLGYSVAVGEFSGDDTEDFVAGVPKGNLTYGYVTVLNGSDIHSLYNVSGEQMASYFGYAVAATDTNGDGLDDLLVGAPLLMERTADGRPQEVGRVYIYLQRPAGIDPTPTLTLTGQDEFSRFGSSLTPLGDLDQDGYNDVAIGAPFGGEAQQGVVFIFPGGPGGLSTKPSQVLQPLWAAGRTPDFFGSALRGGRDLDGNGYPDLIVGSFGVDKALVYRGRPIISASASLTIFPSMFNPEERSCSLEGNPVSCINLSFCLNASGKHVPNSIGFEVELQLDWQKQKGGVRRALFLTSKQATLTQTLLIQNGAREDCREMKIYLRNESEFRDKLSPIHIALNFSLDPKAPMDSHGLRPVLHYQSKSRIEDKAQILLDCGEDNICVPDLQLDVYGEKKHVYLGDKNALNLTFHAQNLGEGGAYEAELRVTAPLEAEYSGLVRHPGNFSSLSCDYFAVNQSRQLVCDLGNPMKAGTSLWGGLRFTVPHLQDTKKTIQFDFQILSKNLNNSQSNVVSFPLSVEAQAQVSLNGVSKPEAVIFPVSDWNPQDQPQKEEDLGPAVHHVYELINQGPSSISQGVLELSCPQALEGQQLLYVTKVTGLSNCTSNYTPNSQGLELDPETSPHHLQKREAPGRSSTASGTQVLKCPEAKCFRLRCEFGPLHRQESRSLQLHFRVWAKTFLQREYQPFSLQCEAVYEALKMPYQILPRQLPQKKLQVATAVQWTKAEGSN
T5 sequence (P09055 21-728 limits assumed, chain 2 of 2): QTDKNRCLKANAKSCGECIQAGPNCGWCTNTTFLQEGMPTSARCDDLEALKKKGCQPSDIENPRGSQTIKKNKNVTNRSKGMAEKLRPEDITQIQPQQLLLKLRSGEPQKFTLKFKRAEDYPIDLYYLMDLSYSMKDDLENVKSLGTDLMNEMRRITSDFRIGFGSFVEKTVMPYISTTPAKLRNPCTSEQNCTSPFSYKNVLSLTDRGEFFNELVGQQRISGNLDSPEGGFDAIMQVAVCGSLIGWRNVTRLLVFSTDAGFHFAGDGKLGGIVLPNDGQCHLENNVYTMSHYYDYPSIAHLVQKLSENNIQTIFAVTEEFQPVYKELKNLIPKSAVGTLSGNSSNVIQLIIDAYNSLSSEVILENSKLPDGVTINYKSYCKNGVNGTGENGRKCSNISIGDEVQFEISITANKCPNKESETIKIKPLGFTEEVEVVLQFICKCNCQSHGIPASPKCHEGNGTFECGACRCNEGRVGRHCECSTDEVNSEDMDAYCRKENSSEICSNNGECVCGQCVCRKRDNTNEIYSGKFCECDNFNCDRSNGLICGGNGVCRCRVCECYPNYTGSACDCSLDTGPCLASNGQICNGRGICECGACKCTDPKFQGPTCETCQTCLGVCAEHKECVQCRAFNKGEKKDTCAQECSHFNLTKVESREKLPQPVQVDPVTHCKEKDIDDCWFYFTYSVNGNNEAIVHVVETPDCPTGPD

Row | Binder | % Inhibition of cell adhesion n = 1 (K562 on full length FN) (human α5β1 integrin [1]) [%] | % Inhibition of cell adhesion n = 2 (K562 on full length FN) (human α5β1 integrin [1]) [%] | % Inhibition of cell adhesion n = 3 (K562 on GST-FNIII(9-10), no pre-incubation) (human α5β1 integrin [1]) [%] | % Inhibition of cell adhesion n = 4 (K562 on GST-FNIII(9-10), supernatant 1 in 10) (human α5β1 integrin [1]) [%] | % Inhibition of cell adhesion n = 5 (K562 on GST-FNIII(9-10), supernatant 1 in 10) (human α5β1 integrin [1]) [%] | % Inhibition of adhesion CS1 n = 1 (J6.77 Jurkat on GST-CS-1) [2] [%] | % Inhibition of adhesion CS1 n = 2 (J6.77 Jurkat on GST-CS-1) [2] [%] | Geo Mean on Macaque T-cells IgG detection (Macaque α5β1) | IC50 ng/mL (K562 adhesion to GST-FNIII(9-10)) (human α5β1 integrin [3]) [ng/mL] | Binding Geomean [4] | binding result [4] | Average % inhibition at 5 ug/ml (J6 adhesion to GST-CS-1) [5] [%] | Kd (human α5β1 integrin [6]) [pM] | binding result (mouse α5β1 integrin)
1 | B1 | 96 | 98 | 90 | 97 | 102 | 27 | -15 | 12 | 28.4 | 4.62 | no binding | -9 | 34.7 | –
2 | B2 | 97 | 96 | 99 | 97 | 104 | 24 | -4 | 16 | 12.4 | 4.04 | no binding | 0 | 14.7 | no binding
3 | B3 | 96 | 100 | 103 | 91 | 84 | 31 | -8 | 13 | 97.8 | 2.94 | no binding | -12 | – | –
